Publication PMC8836101 (2022)
One block for each binder: values may come before it.

How the values were obtained:
H3 22-41 = H3 22-41 (Homo sapiens, unmodified; biotin, attachment site not given); experiment: FACS; yeast surface display titration
H3K18me2 = H3K18me2 (Homo sapiens, dimethyl-Lys18 (mature numbering); biotin, attachment site not given; limits assumed from the H3 1-21 control); experiment: FACS; yeast surface display titration

- Kd (H3 22-41): 6.5 µM
B1: bromo-adjacent homology domain of ASH1L (domain or fragment)
chain: NFHSFNVEKQQLCKCGFEKCRGIIGGKSQRVNGLTSSKNSQPMATHKKSGRSKEKRKSKHKLKKRRGHLSEEPSENINTPTRLTPQLQMKPMSNRERNFVLKHHVFLVRNWEKIRQKQEEVKHTSDNIHSASLYTRWNGICRDDGNIKSDVFMTQFSALQTARSVRTRRLAAAEENIEVARAARLAQIFKEICDGIISYKDSSRQALAAPLLNLPPKKKNADYYEKISDPLDLITIEKQILTGYYKTVEAFDADMLKVFRNAEKYYGRKSPVGRDVCRLRKAYYNARHEASAQIDEIVGETASEADSSETSVSEKENGHEKDDDVIRCICGLYKDEGLMIQCDKCMVWQHCDCMGVNSDVEHYLCEQCDPRPVDREVPMIPRPHYAQPGCVYFICLLRDDLLLRQGDCVYLMRDSRRTPDGHPVRQSYRLLSHINRDKLDIFRIEKLWKNEKEERFAFGHHYFRPHETHHSPSRRFYHNELFRVPLYEIIPLEAVVGTCCVLDLYTYCKGRPKGVKEQDVYICDYRLDKSAHLFYKIH

- Kd (H3K18me2): 5 µM
B2: tandem Tudor domains of UHRF1 (domain or fragment)
chain: WDETELGLYKVNEYVDARDTNMGAWFEAQVVRVTRKAPSRDEPCSSTSRPALEEDVIYHVKYDDYPENGVVQMNSRDVRARARTIIKWQDLEVGQVVMLNYNPDNPKERGFWYDAEISRKRETRTARELYANVVLGDDSLNDCRIIFVDEVFKIERPGE
